Test results published in patent US20170189529A1.

Columns and labels:
[1] = target: hemagglutinin (HA) of influenza B virus B/Florida (Yamagata lineage) (influenza B virus B/Florida/06 (Yamagata clade)); experiment: ForteBio Octet; antigen on the sensor, varying antibody concentrations
[2] = target: hemagglutinin (HA) of influenza B virus B/Malaysia (Victoria lineage) (influenza B virus B/Malaysia/04 (Victoria clade)); experiment: as above
[3] = target: recombinant HA of influenza A H3 A/Sydney/97 (influenza A virus H3 A/Sydney/97); experiment: recombinant HA ELISA (AttoPhos fluorescence, mean of triplicates)
[4] = target: recombinant HA of influenza A H1 A/California/09 (influenza A virus H1 A/California/09); experiment: as above
[5] = target: H7 Netherlands/219/03 HA trimer (influenza A virus H7 Netherlands/219/03); experiment: kinetic binding to HA trimer (instrument not stated)
[6] = target: H3 Perth/16/2009 HA monomer (influenza A virus H3 Perth/16/2009); experiment: kinetic binding to HA monomer (instrument not stated)
[7] = target: H5 Vietnam/1203/2004 HA trimer (influenza A virus H5 Vietnam/1203/2004); experiment: kinetic binding to HA trimer (instrument not stated)
[8] = target: H7 Netherlands/219/03 HA monomer (influenza A virus H7 Netherlands/219/03); experiment: kinetic binding to HA monomer (instrument not stated)
[9] = target: H9 HongKong/1073/99 HA monomer (influenza A virus H9 HongKong/1073/99); experiment: as above
[10] = target: H5 Vietnam/1194/2004 HA monomer (influenza A virus H5 Vietnam/1194/2004); experiment: as above

B1: TRL833 (antibody, V domains shown)
VH: QVQLLESGPGLVKPSQTLLLTCTVSGASISTGGNYWSWIRQHPGKDLEWIGYIFYSGTTKYNPSVDNPSLKSRVTMSVDTSENQFSLKLSSVTAADTAVYFCARGSPNSGYDWGPHFDYWGQGTLVTVSS
VL: DIELTQSPSVSVSPGQTASITCSGDKLGDKFVCWYQQKAGQSPIVVIYQDDKRPSGIPERFSGSNSGNTATLTISGTQAMDEADYFCQAWDSTTVVFGGGTKLTVLG
For B1, the Kd [1] was 2.9 nM and the Kd [2] was 0.2 nM.

B2: TRL579 (antibody, V domains shown)
VH: QVQLVQSGAEVKKPGASVKVSCKTSGYTFTAYTIHWVRQAPGQRLEWMGWINAGNGHTKYSQRFKGRVTITRDTSARTTYMELRSLTSEDTALYFCARGPETYYYDKTNWLNSHPDEYFQHWGHGTQVTVSS
VL: DIQMTQSPSTLSASVGDRVTITCRASQTINNYLAWYQQKPGKAPKLLIYKASSLESGVPSRFSGSGSGTEFTLTISSLQPDDFATYYCQEYNNDSPLTFGGGTKVEIKR
In the case of B2, the fold reactivity over background (fold over background) [3] is reported as 25.6, the fold reactivity over background (fold over background) [4] is reported as 1 and the Kd [5] is reported as 0.4 nM. For the same binder, the koff [5] was 4e-05 s⁻¹, the kon [5] was 100000 M⁻¹ s⁻¹ and the Kd [6] was 3.9 nM. It also gave a koff [6] of 0.00064 s⁻¹ and a kon [6] of 170000 M⁻¹ s⁻¹.

B3: TRL845 (antibody, V domains shown)
VH: QVQLVQSGGDLVQPGGSLRLSCAASGFTFSRYSMNWVRQAPGMGLEWVAYISDTSRTIYYADSVKGRFTISRDNAKNSLYLQMKSLRDEDTAVYYCARDPDTPFVRAFDSWGQGTLVTVSS
VL: DIVLTQSPSFLSASVGDRVTITCRASQLISSYFAWYQQKPGKPPKLLIYAASTLQSGVPSRFSGSGSGTQFSLTISSLQPEDFATYYCQQLNSYPPITFGQGTRLEIKR
B3 gave a fold reactivity over background (fold over background) [3] of 1.1 and a fold reactivity over background (fold over background) [4] of 1.4.

B4: TRL784 (antibody, V domains shown)
VH: QVQLVQSGPELKKPGSSVKLSCMATGGTFINYAFSWVRQAPGQGLEWLGGIIPVYGTSNHVEKLQGRVTITADASTNTAYMELSGLRFDDTAVYFCAASTATSGTYYAMRPFDFWGQGTLVSVSS
VL: DIELTQDPSVSVAPGQTARIPCVRFNMGPTSVHWYQQKPGQAPVLVVYDDSDRPSGIPERFSGSNSGDSATLTISRVEAGDEADYYCQVWDMSSDRRVFGGGTTLTVLG
With B4 the Kd [1] was 0.7 nM and the Kd [2] was 7 nM.

B5: TRL823 (antibody, V domains shown)
VH: QVQLVESGGGVVQPGGSLRLSCAASGFNFDEYVMYWVRQSPGKGLEWVSLIGADGRGTYNSDSVKGRFTISRDNRKNSLYLQMNSLRSDDTALYYCAKVERSFYDGSGYGDALEIWGQGTMVTVSS
VL: DIVMTQSPSSLSASVGDRVSITCRASQTITRFLNWYQQKPGKGPKLLIYAASTVHRGVPSRFSGSGSGTDFTLTISSLQPEDFATYYCQQSYSAPFTFGPGTTVDIRR
Work on B5 yielded a Kd [1] of 2 nM and a Kd [2] of 0.3 nM.

B6: TRL847 (antibody, V domains shown)
VH: QVQLVESGGGLVQPGGSLRLSCVASGFTFSRFSMNWVRQAPGMGLEWVSYISDTGRTIYYADSVKGRFTISRDNDKNTLYLQMKSLRDEDSAFYYCARDPDTPFVRAFDSWGQGVLVTVSS
VL: DIVMTQSPSFLSASVGDRVTITCRTSQVISSYLAWYQQRPGKAPKLLIYAASTLQSGVPSRFSGSGSGTRFSLTISNLQPEDFATYFCQQLTTYPPITFGQGTRLEIKR
In the case of B6, the fold reactivity over background (fold over background) [3] is reported as 1 and the fold reactivity over background (fold over background) [4] is reported as 1.1.

B7: TRL856 (antibody, V domains shown)
VH: QVQLVESGGGLVQPGGSLRLSCAASGFTFSDYWMVWVRQAPGKGLVWVSRISSDGSTTSYADSVKGPFTISRDNAKNTLYLQMNSLRAEDTAVYYCARVATPYYYESGFDYWGQGALVTVSS
VL: DIVLTQSPSVSVAPGQTARITCGGNDIGSKSVHWYQQKPGQAPVLVVFDDRDRPSGIPERFSGSNSGNTATLTISRVEAGDEADYYCQVWDITSDLVVFGGGTKLTVVG
B7 was tested, and the fold reactivity over background (fold over background) [3] was 1.3 and the fold reactivity over background (fold over background) [4] was 1.2.

B8: TRL832 (antibody, V domains shown)
VH: QVQLVESGPGLMKPSETLSLTCTVSGGSVSNYYWSWIRQPPGKGLEWIGYVFYSGSSNYNPSLNNPSLKSRVTISIDTSNNQFSLKLSSVTAADTAVYYCARGRVNSGYDWGPNFDSWGQGALVTVSS
VL: DIVLTQAPSVSVSPGQTASITCSGDRLGEKFASWYQQKPGQSPVLVIYEDSKRPSGIPDRFSGSNSGNTATLTISGTQIMDEGDFFCQAWDSSTVVFGGGTKLTVLG
B8 showed a fold reactivity over background (fold over background) [3] of 1.1 and a fold reactivity over background (fold over background) [4] of 1.1.

B9: TRL837 (antibody, V domains shown)
VH: QVQLVQSGAEVKKPGSSVTVSCKTSGHTFISYAISWLRQAPGQGLEWMGGIVPIFGTVNYTQKFQGRLTITADESTSTAYMDLSRLTFEDTAIYFCAREAGYHSSFSGVYFDYWGQGTLLTVSS
VL: DIVMTQSPGTLSLSPGERATLYCRASQSVRSGYLAWYQHKPGQAPLLLFYDASGRATGIPDRFSGSGSGTDFTLTISRLEPEDFAVYYCLQYGSSPRTFGQGTKVEIKR
B9 showed a Kd [1] of 0.3 nM and a Kd [2] of 1 nM.

B10: TRL854 (antibody, V domains shown)
VH: QVQLVESGAEVKKPGASVRVSCKGSGYTFTAYHMHWVRQAPGQGFEWVGWINPNSGATYYTSTFEGRVTMTRDTSITTAYMELSSLRSDDTAVYYCATDIVVERDASLGGFNSYGMDVWGQGTTVTVSS
VL: DIEMTQSPLSLPVTPGEPASISCRSSQSLLHSNGYNHLAWYLQKPGRSPHLLIYLASTRASGVPDRFSGSGSGTDFTLKISRVEAEDVGIYYCMQSLQTSITFGQGTRLEIKR
With B10 the fold reactivity over background (fold over background) [3] was 1.3 and the fold reactivity over background (fold over background) [4] was 1.2.

B11: TRL813 (antibody, V domains shown)
VH: QVQLVESGGGLVQPGGSLRLSCAASGFIFGDFAIHWVRQASGKGLEWVARIRSGLNRFETAYAASVEGRLTISRDDSKSMAYLQMNNVKAEDTAVYLCTYLVGAVGFQHWGQGTLVTVSS
VL: DIVMTQSPSTLSASVGDRVTITCRASQTIYRWLAWYQQKPGKAPKVLIYKASTLESGVPSRFSGSGSGTEFTLAISSLQPDDFATYYCQQYNSFPYRFGQGTKVEIKR
For B11, the fold reactivity over background (fold over background) [3] was 1.1 and the fold reactivity over background (fold over background) [4] was 1.6.

B12: TRL053 (antibody, V domains shown)
VH: QVQLVQSGAEVRKPGSSVKVSCKVSGGIIRKYAINWVRQAPGQGLEWMGGIIAIFNTANYAQKFQGRVTITADESTSTVYMELSSLRSEDTALYYCARGMNYYSDYFDYWGQGSLVTVSP
VL: EIVLTQSPGTLSLSPGERATLSCRASQSVRSNNLAWYQHKPGQAPRLLIFGASSRATGIPDRFSGSGSGTDFTLTISRLEPEDFAVYYCQQYGSSPALTFGGGTKVEIKR
Binder B12 has a fold reactivity over background (fold over background) [3] of 1, a fold reactivity over background (fold over background) [4] of 25.6 and a Kd [7] of 0.5 nM. For the same binder, the koff [7] was 4.5e-05 s⁻¹, the kon [7] was 92000 M⁻¹ s⁻¹ and the Kd [8] was 1.2 nM. It also gave a koff [8] of 6.7e-05 s⁻¹, a kon [8] of 55000 M⁻¹ s⁻¹ and a Kd [9] of 0.2 nM. The koff [9] was 1.6e-05 s⁻¹, the kon [9] was 98000 M⁻¹ s⁻¹ and the Kd [10] was 0.5 nM. The koff [10] was 1.9e-05 s⁻¹ and the kon [10] was 38000 M⁻¹ s⁻¹.

B13: TRL835 (antibody, V domains shown)
VH: QVQLVQSGAEVRKPGESLRISCRGSGYNFPKYWIGWVRQMPGKGLEWMGMIYPGDSDVRYNPSFQGQVTISADESINTAYLQWSSLRTSDTARYYCARHLGQQLVSNTYYYYGMDVWGQGTTVTVSS
VL: DIVLTQSPLSLPVTPGEPASISCRSSQSLLDSNGYNYLDWYLQKPGQSPQLLIYLASYRAPGVPDRFSGSGSGTDFTLKISRVEAEDVGLYYCMQALQTPPMYTFGQGTKLEIKR
In the case of B13, the Kd [1] is reported as 0.6 nM and the Kd [2] is reported as 2.3 nM.
